The chains are these.
B1: synthetic NEFL head domain 5×D_(22-30) (protein)
chain: SSFSYEPYYSTSYKRRYVETPRVHISSVRCGYSTARSAYSSYSAPVSSSLSVRRSYSSSSGSLMPSLENLELS
B2: synthetic NEFL head domain 5×D_(33-41) (protein)
chain: B1 chain
B3: synthetic NEFL head domain 5×D_(63-71) (protein)
chain: B1 chain
B4: synthetic NEFL head domain 5×D_(53-63) (protein)
chain: B1 chain
B5: synthetic NEFL head domain 5×D_(43-51) (protein)
chain: B1 chain
B6: untagged semisynthetic EMD LCD (residues 46 to 221), all-L-WT (domain or fragment, UniProt P50402 46-221, looked up)
chain: RRLSPPSSSAASSYSFSDLNSTRGDADMYDLPKKEDALLYQSKGYNDDYYEESYFTTRTYGEPESAGPSRAVRQSVTSFPDADAFHHQVHDDDLLSSSEEECKDRERPMYGRDSAYQSITHYRPVSASRSSLDLSYYPTSSSTCFMSSSSSSSSWLTRRAIRPENRAPGAGLGQER
notes: Emerin (EMD) LCD residues 46 to 221, S189C and D220E; Rink amide resin implies a C-terminal amide (surmised); also called WT variant; source: RP-HPLC purified
B7: untagged semisynthetic EMD LCD 3×D_(195-199) (protein)
chain: B6 chain
B8: semisynthetic EMD LCD with a central 1×D inversion within the 3×D_(191-195) variant (protein)
chain: B6 chain
B9: untagged semisynthetic EMD LCD 3×D_(203-207) (protein)
chain: B6 chain
B10: untagged semisynthetic EMD LCD 3×D_(199-203) (protein)
chain: B6 chain
B11: untagged semisynthetic EMD LCD 3×D_(191-195) (protein)
chain: B6 chain
B12: HA-tagged semisynthetic EMD LCD 3×D_(191-195) (domain or fragment)
chain: B6 chain
modifications: three D-amino acids at alternating positions, 3×D_(191-195)
B13: HA-tagged semisynthetic EMD LCD 3×D_(211-215) (domain or fragment)
chain: B6 chain
modifications: three D-amino acids at alternating positions, 3×D_(211-215)
B14: HA-tagged semisynthetic EMD LCD 3×D_(199-203) (domain or fragment)
chain: B6 chain
modifications: three D-amino acids at alternating positions, 3×D_(199-203)
B15: HA-tagged semisynthetic EMD LCD 3×D_(195-199) (domain or fragment)
chain: B6 chain
modifications: three D-amino acids at alternating positions, 3×D_(195-199)
B16: HA-tagged semisynthetic EMD LCD 3×D_(207-211) (domain or fragment)
chain: B6 chain
modifications: three D-amino acids at alternating positions, 3×D_(207-211)
B17: HA-tagged semisynthetic EMD LCD 3×D_(203-207) (domain or fragment)
chain: B6 chain
modifications: three D-amino acids at alternating positions, 3×D_(203-207)
B18: synthetic NEFL head domain (residues 2 to 74), WT (domain or fragment, UniProt P07196 2-74, looked up)
chain: B1 chain
notes: neurofilament light chain (NEFL) head domain residues 2 to 74, ligation junction cysteine S31C and D72E; also called WT head domain; NEFL LCD; source: fully synthetic: NEFL-P1 (2 to 30, MesNa thioester) ligated to NEFL-P2 (31 to 74) by native chemical ligation; RP-HPLC purified

In the first series the target is T1, wild-type glutathione S-transferase (GST)-EMD LCD fusion protein.
T1 sequence (P50402 whole entry, species assumed, looked up): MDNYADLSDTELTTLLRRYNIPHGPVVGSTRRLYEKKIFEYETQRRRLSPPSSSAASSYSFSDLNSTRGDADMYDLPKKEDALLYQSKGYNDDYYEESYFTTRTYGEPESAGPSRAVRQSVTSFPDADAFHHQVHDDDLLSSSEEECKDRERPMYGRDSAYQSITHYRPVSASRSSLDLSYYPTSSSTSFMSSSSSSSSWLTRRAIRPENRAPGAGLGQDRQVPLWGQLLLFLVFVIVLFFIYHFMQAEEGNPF
Kind of series: pull-down; WT GST-EMD LCD immobilized on glutathione resin, incubated with HA-tagged EMD LCD prey (50 nM), washed with binding buffer, eluted with GSH; anti-HA Western blot of eluent relative to input, densitometry, n = 3.
Conditions: not given
A general note: Immunoblotting shows a protein as a band on a membrane.
Take “HA-tagged EMD LCD 3×Pro_(198-201) (domain or fragment)”: the fold reduction of pulldown relative to WT was determined as 3.4 fold.
For “HA-tagged EMD LCD 3×Pro_(183-186) (domain or fragment)”, the fold reduction of pulldown relative to WT stood at 2.2 fold.
“HA-tagged EMD LCD 3×Pro_(188-191) (domain or fragment)” showed a fold reduction of pulldown relative to WT of 5 fold.
As to “HA-tagged EMD LCD 3×Pro_(193-196) (domain or fragment)”, the fold reduction of pulldown relative to WT came out at 5.9 fold.

For a further series, the target named is P07196. Kind of series: turbidity (absorbance at 395 nm); synthetic NEFL head domain 5×D library, 100 μM LCD, A395, n = 3. To be noted: other: turbidity (absorbance at 395 nm).
In the case of B1, the “fold decrease in turbidity relative to WT” value is 9.1-fold.
For the molecule B2, the “fold decrease in turbidity relative to WT” value is given as 20-fold.
In the case of B3, the fold decrease in turbidity relative to WT came to 1 fold.
The same measure, in the same setting: in the case of B4 it was 1.6-fold; in that of B5, 2.7-fold.

A further series concerns the molecule itself. Kind of series: turbidity (absorbance at 395 nm); untagged semisynthetic EMD LCD ChIM library, 50 μM LCD, rapid dilution from strong denaturant into physiological buffer, n = 3.
Conditions: not given
With B6, the binding result was “binds”.

Test system in a further series: not listed separately
Briefly: turbidity (absorbance at 395 nm); untagged recombinant EMD LCD 3×Pro library, 60 μM LCD, transfer from denaturing to native Tris buffer, n = 3; self-association read as precipitation. Particulars: other: turbidity (absorbance at 395 nm).
With untagged EMD LCD 3×Pro_(183-186), the “fold reduction of turbidity relative to WT” value is “modestly reduces turbidity by 2.8-fold relative to WT”.
Same read-out and setting: next, untagged EMD LCD 3×Pro_(203-206): 14.3-fold; untagged EMD LCD 3×Pro_(188-191): 108 fold; untagged EMD LCD 3×Pro_(198-201): 34.7 fold.
With untagged EMD LCD 3×Pro_(193-196), the fold reduction of turbidity relative to WT turned out to be 16.6 fold.

A further series concerns the target P50402. Briefly: turbidity (absorbance at 395 nm); untagged semisynthetic EMD LCD ChIM library, 50 μM LCD, rapid dilution from strong denaturant into physiological buffer, n = 3. Particulars: other: turbidity (absorbance at 395 nm).
Consider B7, for which the fold decrease in turbidity turned out to be 2.8 fold.
For the molecule B8, the “fold decrease in turbidity relative to WT” value was “a 6.4-fold decrease in turbidity relative to WT”.
Consider B9, for which the “fold decrease in turbidity” value is reported as “a modest 1.4-fold decrease in turbidity”.
For the molecule B10, the “fold decrease in turbidity” value was 2.1-fold.
Same read-out and setting: next, B11: 13.3 fold.

A further series has as its target T1, wild-type glutathione S-transferase (GST)-EMD LCD fusion protein. Briefly: pull-down; WT GST-EMD LCD immobilized on glutathione resin, incubated with HA-tagged EMD LCD prey (50 nM), washed with binding buffer, eluted with GSH; anti-HA Western blot of eluent relative to input, densitometry, n = 3.
Conditions: not given
The source holds these as a separate data set.
Consider B12, for which the fold reduction of pulldown relative to WT turned out to be 8.8 fold.
In turn, B13 gave a fold difference of pulldown from WT of 1.7 fold.
B14 had a fold reduction of pulldown relative to WT of 6.2 fold.
The same measure, in the same setting: next, B15: 7.9 fold.
The molecule B16 showed a fold difference of pulldown from WT of 1.8 fold.
Regarding B17, the fold reduction of pulldown relative to WT turned out to be 3.6 fold.

The next series concerns the molecule itself. Briefly: turbidity (absorbance at 395 nm); synthetic NEFL head domain 5×D library, 100 μM LCD, A395, n = 3.
Conditions: not given
With B18, the binding result was “binds”.

(Values after PMC13167773, “Chiral inversion mutagenesis identifies geometrically constrained residues within self-associating low-complexity domains” (Proceedings of the National Academy of Sciences of the …, 2026).)
